Starred links: 1 amine or outer side, 2 acyl side, 3 side chain; linkers in the order of their positions; H or OH if unused. Non-standard residues stand in square brackets, D forms with d. *: point of attachment. AC4Abu = α-carboxy-4-aminobutyric acid, O=C(C(CCN[*:1])C(=O)[*:3])[*:2]; Oic = O=C(O)[C@@H]1C[C@@H]2CCCC[C@@H]2N1; Phe(4-Cl) = N[C@@H](Cc1ccc(Cl)cc1)C(=O)O; dPhe(4-Cl) = N[C@H](Cc1ccc(Cl)cc1)C(=O)O; γGlu = O=C(O)[C@H](CCC(=O)[*:2])N[*:1]; 2Nal = N[C@@H](Cc1ccc2ccccc2c1)C(=O)O; NMeR = CN[C@@H](CCCNC(=N)N)C(=O)O; Tridecanoyl = CCCCCCCCCCCCC(=O)*; hArg = N=C(N)NCCCC[C@H](N)C(=O)O; 3Pal = N[C@@H](Cc1cccnc1)C(=O)O; Cha = N[C@@H](CC1CCCCC1)C(=O)O; β3hP = O=C(O)C[C@@H]1CCCN1; Nle = CCCC[C@H](N)C(=O)O; AEEA = NCCOCCOCC(=O)O; βAla = NCCC(=O)O; BLys = β-lysine
T1: rat APJ receptor (rat, UniProt Q9JHG3 1-377)
T1 sequence (looked up): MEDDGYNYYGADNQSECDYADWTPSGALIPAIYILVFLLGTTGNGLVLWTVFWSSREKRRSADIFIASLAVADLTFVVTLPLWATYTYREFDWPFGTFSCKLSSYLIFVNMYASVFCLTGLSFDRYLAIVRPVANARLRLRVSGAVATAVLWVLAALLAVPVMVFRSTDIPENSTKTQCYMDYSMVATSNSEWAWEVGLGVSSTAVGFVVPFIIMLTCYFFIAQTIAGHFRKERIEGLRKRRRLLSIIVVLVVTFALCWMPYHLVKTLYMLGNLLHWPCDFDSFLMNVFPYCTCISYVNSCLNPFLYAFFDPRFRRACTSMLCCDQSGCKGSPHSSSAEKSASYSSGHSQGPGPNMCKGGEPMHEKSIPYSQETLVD

T2: human APJ receptor (human, UniProt P35414 1-380)
T2 sequence (looked up): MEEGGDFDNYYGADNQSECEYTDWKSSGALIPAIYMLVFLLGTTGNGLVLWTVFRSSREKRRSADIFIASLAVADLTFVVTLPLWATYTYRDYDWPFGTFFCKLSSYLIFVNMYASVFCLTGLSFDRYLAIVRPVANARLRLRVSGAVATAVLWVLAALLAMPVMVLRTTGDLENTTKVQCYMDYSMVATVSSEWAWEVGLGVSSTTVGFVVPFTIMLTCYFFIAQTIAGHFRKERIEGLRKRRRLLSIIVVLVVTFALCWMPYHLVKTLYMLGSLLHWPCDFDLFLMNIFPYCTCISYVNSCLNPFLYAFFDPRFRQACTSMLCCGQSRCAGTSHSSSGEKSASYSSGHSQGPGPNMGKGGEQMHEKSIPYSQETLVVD


What was measured:
rat APJ receptor = target: T1, rat APJ receptor; experiment: cell-based or functional assay
human APJ receptor = target: T2, human APJ receptor; experiment: cell-based or functional assay

EC50 Rat APJ Receptor (GTPγS assay) (rat APJ receptor) [nM] | EC50 Human APJ Receptor (GTPγS assay) (human APJ receptor) [nM] | Binder
260 | 139 | Tridecanoyl-[γGlu][AEEA][AEEA][dQ][hArg]P[NMeR][Cha]S[βAla]KG[Oic][Nle]P[dPhe(4-Cl)]-OH (SMILES CCCCCCCCCCCCC(=O)N[C@@H](CCC(=O)NCCOCCOCC(=O)NCCOCCOCC(=O)N[C@H](CCC(N)=O)C(=O)N[C@@H](CCCCNC(=N)N)C(=O)N1CCC[C@H]1C(=O)N(C)[C@@H](CCCNC(=N)N)C(=O)N[C@@H](CC1CCCCC1)C(=O)N[C@@H](CO)C(=O)NCCC(=O)N[C@@H](CCCCN)C(=O)NCC(=O)N1[C@H](C(=O)N[C@@H](CCCC)C(=O)N2CCC[C@H]2C(=O)N[C@H](Cc2ccc(Cl)cc2)C(=O)O)C[C@@H]2CCCC[C@@H]21)C(=O)O) [Apelin polypeptide SEQ ID NO: 304]
30.7 | > 4170 | Tridecanoyl-[γGlu][AEEA][AEEA][dQ][hArg]P[NMeR][Cha]SHK[βAla][Oic][Nle]P[dPhe(4-Cl)]-OH (SMILES CCCCCCCCCCCCC(=O)N[C@@H](CCC(=O)NCCOCCOCC(=O)NCCOCCOCC(=O)N[C@H](CCC(N)=O)C(=O)N[C@@H](CCCCNC(=N)N)C(=O)N1CCC[C@H]1C(=O)N(C)[C@@H](CCCNC(=N)N)C(=O)N[C@@H](CC1CCCCC1)C(=O)N[C@@H](CO)C(=O)N[C@@H](Cc1c[nH]cn1)C(=O)N[C@@H](CCCCN)C(=O)NCCC(=O)N1[C@H](C(=O)N[C@@H](CCCC)C(=O)N2CCC[C@H]2C(=O)N[C@H](Cc2ccc(Cl)cc2)C(=O)O)C[C@@H]2CCCC[C@@H]21)C(=O)O) [Apelin polypeptide SEQ ID NO: 294]
0.807 | 0.496 | Tridecanoyl-[γGlu][AEEA][AEEA][dQ][hArg]P[NMeR][Cha]SHKG[Oic][Nle]P[Phe(4-Cl)]-OH (SMILES CCCCCCCCCCCCC(=O)N[C@@H](CCC(=O)NCCOCCOCC(=O)NCCOCCOCC(=O)N[C@H](CCC(N)=O)C(=O)N[C@@H](CCCCNC(=N)N)C(=O)N1CCC[C@H]1C(=O)N(C)[C@@H](CCCNC(=N)N)C(=O)N[C@@H](CC1CCCCC1)C(=O)N[C@@H](CO)C(=O)N[C@@H](Cc1c[nH]cn1)C(=O)N[C@@H](CCCCN)C(=O)NCC(=O)N1[C@H](C(=O)N[C@@H](CCCC)C(=O)N2CCC[C@H]2C(=O)N[C@@H](Cc2ccc(Cl)cc2)C(=O)O)C[C@@H]2CCCC[C@@H]21)C(=O)O) [Apelin polypeptide SEQ ID NO: 478]
2.32 | 2.75 | Tridecanoyl-[γGlu][AEEA][AEEA][dQ][hArg]P[NMeR][Cha]SHKG[Oic][Nle][β3hP][dPhe(4-Cl)]-OH (SMILES CCCCCCCCCCCCC(=O)N[C@@H](CCC(=O)NCCOCCOCC(=O)NCCOCCOCC(=O)N[C@H](CCC(N)=O)C(=O)N[C@@H](CCCCNC(=N)N)C(=O)N1CCC[C@H]1C(=O)N(C)[C@@H](CCCNC(=N)N)C(=O)N[C@@H](CC1CCCCC1)C(=O)N[C@@H](CO)C(=O)N[C@@H](Cc1c[nH]cn1)C(=O)N[C@@H](CCCCN)C(=O)NCC(=O)N1[C@H](C(=O)N[C@@H](CCCC)C(=O)N2CCC[C@H]2CC(=O)N[C@H](Cc2ccc(Cl)cc2)C(=O)O)C[C@@H]2CCCC[C@@H]21)C(=O)O) [Apelin polypeptide SEQ ID NO: 296]
74.1 | 79.2 | Tridecanoyl-[AC4Abu][AEEA][AEEA][dQ][hArg]P[NMeR][Cha][βAla]HKG[Oic][Nle]P[dPhe(4-Cl)]-OH (SMILES CCCCCCCCCCCCC(=O)NCCC(C(=O)O)C(=O)NCCOCCOCC(=O)NCCOCCOCC(=O)N[C@H](CCC(N)=O)C(=O)N[C@@H](CCCCNC(=N)N)C(=O)N1CCC[C@H]1C(=O)N(C)[C@@H](CCCNC(=N)N)C(=O)N[C@@H](CC1CCCCC1)C(=O)NCCC(=O)N[C@@H](Cc1c[nH]cn1)C(=O)N[C@@H](CCCCN)C(=O)NCC(=O)N1[C@H](C(=O)N[C@@H](CCCC)C(=O)N2CCC[C@H]2C(=O)N[C@H](Cc2ccc(Cl)cc2)C(=O)O)C[C@@H]2CCCC[C@@H]21) [Apelin polypeptide SEQ ID NO: 303]
110 | 109 | Tridecanoyl-[γGlu][AEEA][AEEA][dQ][hArg]P[NMeR][Cha]SH[βAla]G[Oic][Nle]P[dPhe(4-Cl)]-OH (SMILES CCCCCCCCCCCCC(=O)N[C@@H](CCC(=O)NCCOCCOCC(=O)NCCOCCOCC(=O)N[C@H](CCC(N)=O)C(=O)N[C@@H](CCCCNC(=N)N)C(=O)N1CCC[C@H]1C(=O)N(C)[C@@H](CCCNC(=N)N)C(=O)N[C@@H](CC1CCCCC1)C(=O)N[C@@H](CO)C(=O)N[C@@H](Cc1c[nH]cn1)C(=O)NCCC(=O)NCC(=O)N1[C@H](C(=O)N[C@@H](CCCC)C(=O)N2CCC[C@H]2C(=O)N[C@H](Cc2ccc(Cl)cc2)C(=O)O)C[C@@H]2CCCC[C@@H]21)C(=O)O) [Apelin polypeptide SEQ ID NO: 293]
66.7 | 78 | Tridecanoyl-[γGlu][AEEA][AEEA][dQ][hArg]P[NMeR][Cha]SH[3Pal]G[Oic][Nle]P[dPhe(4-Cl)]-OH (SMILES CCCCCCCCCCCCC(=O)N[C@@H](CCC(=O)NCCOCCOCC(=O)NCCOCCOCC(=O)N[C@H](CCC(N)=O)C(=O)N[C@@H](CCCCNC(=N)N)C(=O)N1CCC[C@H]1C(=O)N(C)[C@@H](CCCNC(=N)N)C(=O)N[C@@H](CC1CCCCC1)C(=O)N[C@@H](CO)C(=O)N[C@@H](Cc1c[nH]cn1)C(=O)N[C@@H](Cc1cccnc1)C(=O)NCC(=O)N1[C@H](C(=O)N[C@@H](CCCC)C(=O)N2CCC[C@H]2C(=O)N[C@H](Cc2ccc(Cl)cc2)C(=O)O)C[C@@H]2CCCC[C@@H]21)C(=O)O) [Apelin polypeptide SEQ ID NO: 305]
13.8 | 5.75 | Tridecanoyl-[AC4Abu][AEEA][AEEA]Q[hArg]P[NMeR][Cha]SHKG[Oic][Nle]P[2Nal]-OH (SMILES CCCCCCCCCCCCC(=O)NCCC(C(=O)O)C(=O)NCCOCCOCC(=O)NCCOCCOCC(=O)N[C@@H](CCC(N)=O)C(=O)N[C@@H](CCCCNC(=N)N)C(=O)N1CCC[C@H]1C(=O)N(C)[C@@H](CCCNC(=N)N)C(=O)N[C@@H](CC1CCCCC1)C(=O)N[C@@H](CO)C(=O)N[C@@H](Cc1c[nH]cn1)C(=O)N[C@@H](CCCCN)C(=O)NCC(=O)N1[C@H](C(=O)N[C@@H](CCCC)C(=O)N2CCC[C@H]2C(=O)N[C@@H](Cc2ccc3ccccc3c2)C(=O)O)C[C@@H]2CCCC[C@@H]21) [Apelin polypeptide SEQ ID NO: 405]
136 | 74.1 | Tridecanoyl-[γGlu][AEEA][AEEA][dQ][hArg]P[NMeR][Cha]SH[BLys]G[Oic][Nle]P[dPhe(4-Cl)]-OH [Apelin polypeptide SEQ ID NO: 306]
3.75 | 1.97 | Tridecanoyl-[γGlu][AEEA][AEEA]Q[hArg]P[NMeR][Cha]SHKG[Oic][Nle]P[Phe(4-Cl)]-OH (SMILES CCCCCCCCCCCCC(=O)N[C@@H](CCC(=O)NCCOCCOCC(=O)NCCOCCOCC(=O)N[C@@H](CCC(N)=O)C(=O)N[C@@H](CCCCNC(=N)N)C(=O)N1CCC[C@H]1C(=O)N(C)[C@@H](CCCNC(=N)N)C(=O)N[C@@H](CC1CCCCC1)C(=O)N[C@@H](CO)C(=O)N[C@@H](Cc1c[nH]cn1)C(=O)N[C@@H](CCCCN)C(=O)NCC(=O)N1[C@H](C(=O)N[C@@H](CCCC)C(=O)N2CCC[C@H]2C(=O)N[C@@H](Cc2ccc(Cl)cc2)C(=O)O)C[C@@H]2CCCC[C@@H]21)C(=O)O) [Apelin polypeptide SEQ ID NO: 362]
10.4 | 3.29 | Tridecanoyl-[γGlu][AEEA][AEEA][dQ][hArg]P[NMeR][Cha]SHKG[Oic][Nle][βAla][dPhe(4-Cl)]-OH (SMILES CCCCCCCCCCCCC(=O)N[C@@H](CCC(=O)NCCOCCOCC(=O)NCCOCCOCC(=O)N[C@H](CCC(N)=O)C(=O)N[C@@H](CCCCNC(=N)N)C(=O)N1CCC[C@H]1C(=O)N(C)[C@@H](CCCNC(=N)N)C(=O)N[C@@H](CC1CCCCC1)C(=O)N[C@@H](CO)C(=O)N[C@@H](Cc1c[nH]cn1)C(=O)N[C@@H](CCCCN)C(=O)NCC(=O)N1[C@H](C(=O)N[C@@H](CCCC)C(=O)NCCC(=O)N[C@H](Cc2ccc(Cl)cc2)C(=O)O)C[C@@H]2CCCC[C@@H]21)C(=O)O) [Apelin polypeptide SEQ ID NO: 295]

From patent publication US10941182 (Amgen, dated 2021)
